Measurements: patent publication US20250084176A1 (F STAR BETA, published 2025)

B1: mCD137-mFc-Avi (Fc fusion)
chain: VQNSCDNCQPGTFCRKYNPVCKSCPPSTFSSIGGQPNCNICRVCAGYFRFKKFCSSTHNAECECIEGFHCLGPQCTRCEKDCRPGQELTKQGCKTCSLGTFNDQNGTGVCRPWTNCSLDGRSVLKTGTTEKDVVCGPPVVSFSPSTTISVTPEGGPGGHSLQVL
modifications: one biotin on the Avi sequence of each monomer (BirA); unbiotinylated in the SPR of Example 5.6
notes: also called mouse CD137-mFc-Avi; dimeric mouse CD137; not shown: mouse IgG2a Fc domain (mIgG2a Fc)

Tests used:
[1] = target: human CD137, full length, on cells (human, UniProt Q07011 24-255); assay: cell-based or functional assay
human CD137, full length, on cells, sequence (Q07011 24-255): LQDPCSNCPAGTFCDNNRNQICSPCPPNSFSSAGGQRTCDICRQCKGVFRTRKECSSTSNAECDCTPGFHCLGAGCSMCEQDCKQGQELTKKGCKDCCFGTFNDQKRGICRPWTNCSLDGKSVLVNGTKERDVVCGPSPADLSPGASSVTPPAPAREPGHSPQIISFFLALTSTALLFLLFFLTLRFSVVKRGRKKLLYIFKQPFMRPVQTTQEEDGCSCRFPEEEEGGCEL

[2] = target: T1, mouse CD137, full length, on cells (mouse, UniProt P20334 24-256); assay: cell-based or functional assay
human CD40 = human CD40 (human, UniProt P25942 21-193); assay: SPR (Biacore T200), receptor amine-coupled to CM5 chip
human CD40, sequence (P25942 21-193 limits assumed): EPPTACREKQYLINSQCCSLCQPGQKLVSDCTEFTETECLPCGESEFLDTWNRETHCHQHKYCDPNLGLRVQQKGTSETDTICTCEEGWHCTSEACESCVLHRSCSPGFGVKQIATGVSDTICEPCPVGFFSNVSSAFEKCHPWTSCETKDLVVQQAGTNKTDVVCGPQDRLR
Protocol: (§1) The specificity of the anti-human CD137 Fcabs for human CD137 compared to other related TNFSFR family members was tested. 8 of the Fcabs were tested in mock mAb² (HeID1.3) format and measured by SPR in a Biacore T200 (GE Healthcare) by testing for binding to other human TNFRSF receptors: CD40, OX40 and GITR. Amine coupling (amine coupling kit, GE Healthcare, BR-1000-50) was used to coat human CD40, GITR and OX40 to approximately 1000 RU in Biacore CM5 chips (GE Healthcare, cat no 29149603). […] The chip was regenerated by injection of 10 mM glycine pH 2.5 for 12 s at 30 μl/min. Antibodies specific to the different TNFRSF members were used as positive controls to verify Biacore chip coating. Data was double reference subtracted and analysed using BIAevaluation 3.2 software.

human OX40 = target: T2, human OX40 (human, UniProt P43489 29-216, limits assumed); assay: as above
T2 sequence (looked up): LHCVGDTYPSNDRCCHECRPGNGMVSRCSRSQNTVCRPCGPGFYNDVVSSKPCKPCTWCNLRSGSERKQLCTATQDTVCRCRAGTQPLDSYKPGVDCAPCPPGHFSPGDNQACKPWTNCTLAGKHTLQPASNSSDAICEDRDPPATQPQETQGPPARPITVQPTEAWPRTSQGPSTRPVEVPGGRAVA
Protocol: as §1

human GITR = target: T3, human GITR (human, UniProt Q9Y5U5 26-161, limits assumed); assay: as above
T3 sequence (looked up): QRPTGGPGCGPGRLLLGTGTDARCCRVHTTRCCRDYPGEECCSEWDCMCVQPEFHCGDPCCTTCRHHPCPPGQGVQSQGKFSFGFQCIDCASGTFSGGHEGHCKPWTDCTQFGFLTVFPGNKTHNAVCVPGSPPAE
Protocol: as §1

hCD137-mFc-Avi [3] = target: T4, hCD137-mFc-Avi (human; mouse, UniProt Q07011 24-186, one biotin on the Avi sequence of each monomer (BirA); unbiotinylated in the SPR of Example 5.6); assay: SPR (Biacore), mAb2 captured by anti-human Fab, antigen in solution, 1:1 Langmuir
T4 construct: Made in-house in HEK293-6E; also called human CD137-mFc-Avi; dimeric human CD137; not shown: mouse IgG2a Fc domain (mIgG2a Fc)
T4 sequence (Q07011 24-186): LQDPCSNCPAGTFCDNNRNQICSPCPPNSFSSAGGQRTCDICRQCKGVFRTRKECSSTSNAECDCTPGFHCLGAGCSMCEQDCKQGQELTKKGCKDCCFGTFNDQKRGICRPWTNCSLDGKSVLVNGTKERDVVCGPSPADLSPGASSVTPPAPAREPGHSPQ
Protocol: (§2) An anti-human Fab capture antibody was immobilised on all four flow cells of a CM5 series S chip (GE Healthcare #BR-1005-30) to an average surface density of 6000 RU following the manufacturer's recommendations (GE Healthcare, human Fab capture Kit, #28958325). IEach mAb² was captured to approximately 150 RU by injecting a 3 μg/ml solution of mAb² diluted in HBS-EP+ buffer (GE Healthcare #BR1006-69) for 60 seconds at 30 μl/min. Then different concentrations of human, cyno or mouse CD137 antigen (unbiotinylated human, cyno or mouse CD137-mFc-Avi or human CD137-Avi-His) in HBS-EP+ buffer were flowed over the chip for 3 min at 60 μl/min and then allowed to dissociate for 10 minutes. After each antigen concentration the chip was regenerated by infecting 10 mM glycine pH 2.1 at a flow rate of 30 μl/min for 30 seconds. Buffer HBS-EP+ was injected before the highest concentration of antigen and after the lowest concentration of antigen for reference subtraction, and one of the concentrations at random was repeated twice. The binding kinetics were fit with a 1:1 Langmuir model to generate equilibrium binding constants (KD) for each sample. Data analysis was performed with BiaEvaluation software version 3.2.

hCD137-Avi-His = target: T5, hCD137-Avi-His (human, UniProt Q07011 24-186, single biotin on the Avi sequence (BirA); unbiotinylated in the SPR of Example 5.6); assay: as above
T5 construct: also called human CD137-Avi-His; monomeric human CD137
T5 sequence (Q07011 24-186): as above
Protocol: as §2

cCD137-mFc-Avi = target: T6, cCD137-mFc-Avi (cynomolgus; mouse, one biotin on the Avi sequence of each monomer (BirA); unbiotinylated in the SPR of Example 5.6); assay: as above
T6 construct: also called cyno CD137-mFc-Avi; dimeric cynomolgus CD137; not shown: mouse IgG2a Fc domain (mIgG2a Fc)
T6 chain: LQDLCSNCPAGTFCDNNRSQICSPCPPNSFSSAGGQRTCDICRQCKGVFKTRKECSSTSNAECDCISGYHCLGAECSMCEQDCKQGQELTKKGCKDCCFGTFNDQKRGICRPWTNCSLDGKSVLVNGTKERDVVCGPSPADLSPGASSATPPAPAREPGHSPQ
Protocol: as §2

mCD137-mFc-Avi = target: B1; assay: as above
Protocol: as §2

hCD137-mFc-Avi [4] = target: T4, hCD137-mFc-Avi; assay: SPR (Biacore T200), mAb2 captured by anti-human Fab, hCD137-mFc in solution, 1:1 Langmuir
Protocol: For the hCD137-mFc-Avi antigen the following method was used: an anti-human Fab molecule was immobilised on a CM5 chip to a surface density of between 9,000 and 11,000 response units (RU). The antibodies were diluted to 4 μg/ml in HBS-EP buffer and captured by the anti-Fab molecule with a flow rate of […].
For mCD137-mFc-Avi binding kinetic determination, a different approach was used. […] The analysis of the data was done using the Biacore T200 evaluation software. Curves were subtracted against a blank flow cell and fitted using a 1:1 Langmuir binding model with mass transfer, setting RI to zero as constant and Rₘₐₓ to local.

[5] = target: T1, mouse CD137, full length, on cells; assay: cell-based or functional assay; remark: listed apart in the source
mouse CD40 = mouse CD40 (mouse, UniProt P27512 24-193, limits assumed, biotinylated (EZ-Link Sulfo-NHS-SS-Biotin)); assay: BLI (Octet QKe), biotinylated receptor on streptavidin sensors
mouse CD40, sequence (P27512 24-193 limits assumed): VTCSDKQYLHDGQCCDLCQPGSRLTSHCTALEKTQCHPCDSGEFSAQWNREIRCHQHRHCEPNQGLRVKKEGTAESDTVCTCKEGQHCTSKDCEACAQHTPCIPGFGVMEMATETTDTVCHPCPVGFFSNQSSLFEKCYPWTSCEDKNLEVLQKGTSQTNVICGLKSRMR
Protocol: (§3) The specificity of the anti-mouse CD137 Fcabs for mouse CD137 was tested in HeID1.3 “mock” mAb² format and measured by BLI in an Octet QKe system by testing for binding of the Fcabs to other mouse TNFRSF receptors (CD40, OX40, GITR). […] Anti-mouse CD137 Fcabs in mock mAb² format were diluted 1:1 in kinetic buffer (PALL 18-1092) to a final concentration of at least 1 μM. Antigen-coated sensors were dipped into the mAb² solutions for 180 seconds followed by 180 seconds in 1× kinetic buffer. Antibodies for each of the TNFRSF receptors were used as positive controls.

mouse GITR = target: T7, mouse GITR (mouse, UniProt O35714 20-153, limits assumed, biotinylated (EZ-Link Sulfo-NHS-SS-Biotin)); assay: as above
T7 sequence (looked up): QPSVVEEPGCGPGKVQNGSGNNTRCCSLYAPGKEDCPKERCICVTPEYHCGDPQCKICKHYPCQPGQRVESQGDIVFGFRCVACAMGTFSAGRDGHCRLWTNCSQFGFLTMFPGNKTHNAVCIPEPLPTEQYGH
Protocol: as §3

[6] = target: T8, mouse CD137 ligand on DO11.10 cells (mouse, UniProt P41274 1-309); assay: flow cytometry, detection with anti mouse Fc fragment antibody
T8 construct: whole, on cells
T8 sequence (looked up): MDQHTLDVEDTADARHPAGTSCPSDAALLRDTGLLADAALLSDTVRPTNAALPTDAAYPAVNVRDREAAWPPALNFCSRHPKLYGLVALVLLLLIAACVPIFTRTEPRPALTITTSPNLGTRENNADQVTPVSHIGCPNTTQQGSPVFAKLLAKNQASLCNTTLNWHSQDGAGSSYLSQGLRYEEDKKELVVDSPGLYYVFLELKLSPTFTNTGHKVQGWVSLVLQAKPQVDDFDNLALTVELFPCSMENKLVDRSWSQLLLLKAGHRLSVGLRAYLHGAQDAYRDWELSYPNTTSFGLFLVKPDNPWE
Protocol: In more detail, materials from the same production lot were mixed together and analysed for stability and purity by size-exclusion high-performance liquid chromatography (SE-HPLC), SDS polyacrylamide gel electrophoresis (SDS-PAGE), and size-exclusion chromatography with multi-angle light scattering (SEC-MALS). […] Cells were incubated with the CD137 antigens for 1 hour, and then a fluorescently-labelled anti mouse Fc fragment antibody was used to detect cell binding.

Binder	IL-2 release, human CD137 DO11.10 T cell activation assay, Protein L: +XL EC50 [1] [nM]	IL-2 release, mouse CD137 DO11.10 T cell activation assay, Protein L: +XL EC50 [2] [nM]	IL-2 release, mouse CD137 DO11.10 T cell activation assay, Protein L: +XL Emax [2] [pg/mL]	binding result (human CD40)	binding result (human OX40)	binding result (human GITR)	Kd (hCD137-mFc-Avi [3]) [nM]	Human monomeric CD137 KD fold difference relative to human dimeric KD (hCD137-Avi-His) [fold]	Kd (cCD137-mFc-Avi) [nM]	Kd (mCD137-mFc-Avi) [nM]	Kd (hCD137-mFc-Avi [4]) [nM]	koff (hCD137-mFc-Avi [4]) [s⁻¹]	kon (hCD137-mFc-Avi [4]) [M⁻¹ s⁻¹]	NF-kB luciferase reporter (HEK.FRT.luc.mCD137), Protein L crosslinked: EC50 [5] [nM]	NF-kB luciferase reporter (HEK.FRT.luc.mCD137): fold-change in activity upon crosslinking [5] [fold]	binding result (mouse CD40)	binding result (mouse GITR)	binding result [6]
FS22-053-014/HelD1.3 (bispecific antibody, human IgG1, kappa, Mock mAb^2, IgG1 without LALA; also called FS22-053-14; FS22-053-014/HeID1.3) heavy: QVQLQESGPGLVRPSQTLSLTCTVSGSTFSGYGVNWVRQPPGRGLEWIGMIWGDGNTDYNSALKSRVTMLVDTSKNQFSLRLSSVTAADTAVYYCARERDYRLDYWGQGSLVTVSSASTKGPSVFPLAPSSKSTSGGTAALGCLVKDYFPEPVTVSWNSGALTSGVHTFPAVLQSSGLYSLSSVVTVPSSSLGTQTYICNVNHKPSNTKVDKKVEPKSCDKTHTCPPCPAPELLGGPSVFLFPPKPKDTLMISRTPEVTCVVVDVSHEDPEVKFNWYVDGVEVHNAKTKPREEQYNSTYRVVSVLTVLHQDWLNGKEYKCKVSNKALPAPIEKTISKAKGQPREPQVYTLPPSRDELNPPYLFSNQVSLTCLVKGFYPSDIAVEWESNGQPENNYKTTPPVLDSDGSFFLYSKLTVYHWRWLDGNVFSCSVMHEALHNHYTQKSLSLSPG light: DIQMTQSPASLSASVGETVTITCRASGNIHNYLAWYQQKQGKSPQLLVYNAKTLADGVPSRFSGSGSGTQYSLKINSLQPEDFGSYYCQHFWSTPRTFGGGTKLEIKRTVAAPSVFIFPPSDEQLKSGTASVVCLLNNFYPREAKVQWKVDNALQSGNSQESVTEQDSKDSTYSLSSTLTLSKADYEKHKVYACEVTHQGLSSPVTKSFNRGEC	0.73	2.04	28100	no binding (tested: starting at 1 µM)	no binding (tested: starting at 1 µM)	no binding (tested: starting at 1 µM)	3.2	100	0.9	24	4.4	0.000366	83000	–	–	–	–	–
FS22m-063/HelD1.3 (bispecific antibody, human IgG1, kappa, also called FS22m-063 in HeID1.3 mock mAb^2 format) heavy: QVQLQESGPGLVRPSQTLSLTCTVSGSTFSGYGVNWVRQPPGRGLEWIGMIWGDGNTDYNSALKSRVTMLVDTSKNQFSLRLSSVTAADTAVYYCARERDYRLDYWGQGSLVTVSSASTKGPSVFPLAPSSKSTSGGTAALGCLVKDYFPEPVTVSWNSGALTSGVHTFPAVLQSSGLYSLSSVVTVPSSSLGTQTYICNVNHKPSNTKVDKKVEPKSCDKTHTCPPCPAPELLGGPSVFLFPPKPKDTLMISRTPEVTCVVVDVSHEDPEVKFNWYVDGVEVHNAKTKPREEQYNSTYRVVSVLTVLHQDWLNGKEYKCKVSNKALPAPIEKTISKAKGQPREPQVYTLPPSRDEPYWSYVSLTCLVKGFYPSDIAVEWESNGQPENNYKTTPPVLDSDGSFFLYSKLTVMNYRWELGNVFSCSVMHEALHNHYTQKSLSLSPG light: DIQMTQSPASLSASVGETVTITCRASGNIHNYLAWYQQKQGKSPQLLVYNAKTLADGVPSRFSGSGSGTQYSLKINSLQPEDFGSYYCQHFWSTPRTFGGGTKLEIKRTVAAPSVFIFPPSDEQLKSGTASVVCLLNNFYPREAKVQWKVDNALQSGNSQESVTEQDSKDSTYSLSSTLTLSKADYEKHKVYACEVTHQGLSSPVTKSFNRGEC	–	0.39	24200	–	–	–	–	–	–	–	–	–	–	1.44	27	no binding (tested: at least 1 µM)	no binding (tested: at least 1 µM)	–
B1	–	–	–	–	–	–	–	–	–	–	–	–	–	–	–	–	–	binds
